{
  "source": "paper PMC6611495",
  "origin": "cited, not measured here",
  "target": "protective antigen (PA) (Bacillus anthracis) (UniProt P13423)",
  "data": [
    {"substance": "rCMG2 (from UniProt P58335)", "values": [
      {"measurement": "Kd", "result": 0.4, "unit": "nM"}
    ]}
  ]
}
